Test results as given in patent US20240400715A1 (VIBRANT PHARMA, published 2024).
“And” between values parts separate entries of the source, which are not always exact repeats. Equal values may be shown once. Values belong to the binder of their own block, whether it stands above or below them.

Assays:
[1] = biological target: T1, human CD3ε/δ (ACRO systems, CDD-H52W1) (human, UniProt P07766 23-126; P04234 22-105); test: BLI, antibody captured on AHC sensor, 30 C
T1 construct: bought recombinant heterodimer; also called human CD3 epsilon/delta; Human CD3ε/CD3δ

[2] = biological target: T2, human CD3ε/δ (ACRO systems, CDD-H52W1) (human, UniProt P07766 23-126; P04234 22-105); test: BLI, antibody captured, antigen in solution;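 note: bispecific antibodies captured on AHIC biosensors to a 1.5 nm loading signal, in PBST with 0.02% detergent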
T2 construct: Bought protein; also called human CD3ϵ/CD3δ; human CD3 epsilon/delta antigen
Experimental: The bispecific antibodies were diluted to 5 ag/ml, and 1.5 nm protein was coupled to the surface of the AHIC sensor chip through 0.02% PBST.

[3] = biological target: T3, human CD3 on Jurkat cells (human, UniProt P07766 23-207; P04234 22-171; P09693 23-182); test: FACS, Jurkat cells;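 note: flow cytometric binding of bispecific antibodies to Jurkat T cells, threefold serial dilutions incubated half an hour in the cold, EC50 taken from the fitted binding curve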
T3 construct: whole, on cells; CD3 complex as on Jurkat (Clone E6-1) cells; also called CD3 expressing cells (Jurkat)

[4] = biological target: T1, human CD3ε/δ (ACRO systems, CDD-H52W1); test: serum-stability ELISA, Day 0 (reference)
Experimental: (§1) The samples to be tested were centrifuged at 4° C. at 12000 rpm for 30 minutes to remove the precipitate. 200 μl of each sample to be tested (0.5 mg/ml) was collected in a 1.5 ml Eppendorf tube. An equal volume of human serum (GEMINI, H2OYOOK) was added, mixed thoroughly, and the mixture was incubated in a 37° C. constant temperature CO₂ incubator. For a total of 10 days, 40 μl samples was aspirated every day and stored at −20° C.
(§2) Enzyme-linked immunosorbent assay (ELISA) was used to test the bispecific antibodies' binding to human CEA and human CD3 epsilon/delta antigen. The steps are as follows: the antigen human CD3ε/δ (ACRO systems, CDD-H52W1) and the recombinant tumor antigen human CEA (CEACAM-5/CD66e, ACRO systems, CE5-H5226) were diluted to 1 μg/ml with PBS, and then added to the 96-well plate at 100 μl per well. The wells were coated overnight at 4° C. After washing 3 times with 0.05% PBST, 200 μl 5% skimmed milk powder was added to each well and incubated at 37° C. for 2 h. After washing 3 times with 0.05% PBST, 100 μl primary antibody sample (10 μg/ml) was added to each well, and incubated at 37° C. for 2 h. After washing 3 times with 0.05% PBST, 100 μl (1:6000) diluted secondary antibody goat anti-human Fc-HRP (sigma, A2170) was added to each well, incubated at room temperature for 1 h. After washing 8 times with 0.05% PBST, 50 μl TMB color developing solution was added to each well, and incubated at room temperature for 10-15 min. 50 μl 1 mM HCl was added to each well to stop the color development. 450 nm Absorbance (OD) was read.
(§3) The binding of antibodies to antigen was calculated according to the following formula: Binding (%)=[(ODdayn−ODb)/(ODday0−ODb)]×100%. ODdayn: experimental well (the protein was stored in the serum for n days); ODday0: control well (the protein was not stored in the serum); ODb: blank well (no primary antibody added).

[5] = biological target: T1, human CD3ε/δ (ACRO systems, CDD-H52W1); test: serum-stability ELISA, Day 2 vs Day 0
Experimental: as §1, §2, §3

[6] = biological target: T1, human CD3ε/δ (ACRO systems, CDD-H52W1); test: serum-stability ELISA, Day 10 vs Day 0
Experimental: as §1, §2, §3

[7] = biological target: T1, human CD3ε/δ (ACRO systems, CDD-H52W1); test: serum-stability ELISA, Day 6 vs Day 0
Experimental: as §1, §2, §3

[8] = biological target: T1, human CD3ε/δ (ACRO systems, CDD-H52W1); test: serum-stability ELISA, Day 1 vs Day 0
Experimental: as §1, §2, §3

[9] = biological target: T1, human CD3ε/δ (ACRO systems, CDD-H52W1); test: serum-stability ELISA, Day 7 vs Day 0
Experimental: as §1, §2, §3

[10] = biological target: T1, human CD3ε/δ (ACRO systems, CDD-H52W1); test: serum-stability ELISA, Day 9 vs Day 0
Experimental: as §1, §2, §3

[11] = biological target: T1, human CD3ε/δ (ACRO systems, CDD-H52W1); test: serum-stability ELISA, Day 5 vs Day 0
Experimental: as §1, §2, §3

B1: HER2-CD3 bispecific antibody 501 (bispecific antibody, human IgG4 S228P, kappa, F234A L235A)
heavy: EVKLLESGGGLVQPKGSLKLSCAASGFTFNTYAMNWVRQAPGKGLEWVARIRSKYNNYATYYADSVKDRFTISRDDSQSILYLQMNNLKTEDTAMYYCVRHGNFGNSYVSWFAYWGQGTLVTVSSASTKGPSVFPLAPCSRSTSESTAALGCLVKDYFPEPVTVSWNSGALTSGVHTFPAVLQSSGLYSLSSVVTVPSSSLGTKTYTCNVDHKPSNTKVDKRVESKYGPPCPPCPAPEAAGGPSVFLFPPKPKDTLMISRTPEVTCVVVDVSQEDPEVQFNWYVDGVEVHNAKTKPREEQFNSTYRVVSVLTVLHQDWLNGKEYKCKVSNKGLPSSIEKTISKAKGQPREPQVYTLPPCQEEMTKNQVSLWCLVKGFYPSDIAVEWESNGQPENNYKTTPPVLDSDGSFFLYSRLTVDKSRWQEGNVFSCSVMHEALHNHYTQKSLSLSL
chain: QVQLVQSGGGLVQAGGSLRLSCAASGRTFSSYAMAWFRQAPGKEREFVAAISWSGANIYVADSVKGRFTISRDNAKDTVYLQMNSLKPEDTAVYYCAVKLGFAPVEERQYDYWGQGTQVTVSSESKYGPPCPPCPAPEAAGGPSVFLFPPKPKDTLMISRTPEVTCVVVDVSQEDPEVQFNWYVDGVEVHNAKTKPREEQFNSTYRVVSVLTVLHQDWLNGKEYKCKVSNKGLPSSIEKTISKAKGQPREPQVCTLPPSQEEMTKNQVSLSCAVKGFYPSDIAVEWESNGQPENNYKTTPPVLDSDGSFFLVSRLTVDKSRWQEGNVFSCSVMHEALHNRFTQKSLSLSL
light: QAVVTQESALTTSPGETVTLTCRSSTGAVTTSNYANWVQEKPDHLFTGLIGGTNKRAPGVPARFSGSLIGDKAALTITGAQTEDEAIYFCALWYSNLWVFGGGTKVEIKRTVAAPSVFIFPPSDEQLKSGTASVVCLLNNFYPREAKVQWKVDNALQSGNSQESVTEQDSKDSTYSLSSTLTLSKADYEKHKVYACEVTHQGLSSPVTKSFNRGEC
notes: VHH-hole chain assembled from VHH and hole-Fc with hinge
- Kd [1]: 3.14 nM
- koff [1]: 0.000508 s⁻¹
- kon [1]: 162000 M⁻¹ s⁻¹

B3: 101 (Fab-Knob+CEA-Hole) (bispecific antibody, human IgG4 S228P, kappa, F234A L235A)
heavy: EVKLLESGGGLVQPKGSLKLSCAASGFTFNTYAMNWVRQAPGKGLEWVARIRSKYNNYATYYADSVKDRFTISRDDSQSILYLQMNNLKTEDTAMYYCVRHGNFGNSYVSWFAYWGQGTLVTVSSASTKGPSVFPLAPCSRSTSESTAALGCLVKDYFPEPVTVSWNSGALTSGVHTFPAVLQSSGLYSLSSVVTVPSSSLGTKTYTCNVDHKPSNTKVDKRVESKYGPPCPPCPAPEAAGGPSVFLFPPKPKDTLMISRTPEVTCVVVDVSQEDPEVQFNWYVDGVEVHNAKTKPREEQFNSTYRVVSVLTVLHQDWLNGKEYKCKVSNKGLPSSIEKTISKAKGQPREPQVYTLPPCQEEMTKNQVSLWCLVKGFYPSDIAVEWESNGQPENNYKTTPPVLDSDGSFFLYSRLTVDKSRWQEGNVFSCSVMHEALHNHYTQKSLSLSL
chain: EVQLVESGGGFVQAGESLTLSCTSSTLTFTPYRMAWYRQAPGKQRDLVADISSGDGRTTNYADFAKGRFTISRDNIKNTVFLRMTNLKPEDTAVYYCNTFVSFVGIARSWGQGTQVTVSSESKYGPPCPPCPAPEAAGGPSVFLFPPKPKDTLMISRTPEVTCVVVDVSQEDPEVQFNWYVDGVEVHNAKTKPREEQFNSTYRVVSVLTVLHQDWLNGKEYKCKVSNKGLPSSIEKTISKAKGQPREPQVCTLPPSQEEMTKNQVSLSCAVKGFYPSDIAVEWESNGQPENNYKTTPPVLDSDGSFFLVSRLTVDKSRWQEGNVFSCSVMHEALHNRFTQKSLSLSL
light: QAVVTQESALTTSPGETVTLTCRSSTGAVTTSNYANWVQEKPDHLFTGLIGGTNKRAPGVPARFSGSLIGDKAALTITGAQTEDEAIYFCALWYSNLWVFGGGTKVEIKRTVAAPSVFIFPPSDEQLKSGTASVVCLLNNFYPREAKVQWKVDNALQSGNSQESVTEQDSKDSTYSLSSTLTLSKADYEKHKVYACEVTHQGLSSPVTKSFNRGEC
notes: TA1 anti-CD3 Fab, C17 anti-CEA VHH, human IgG4 Fc knob-into-hole
- Binding % [4]: 100%
- Binding % [5]: 101%
- Binding % [6]: 101%
- Binding % [7]: 103%
- Binding % [8]: 98.5%
- Binding % [9]: 100%
- Binding % [10]: 102%
- Binding % [11]: 99.2%

Further lines, results first:

- Kd [2]: 0.589 nM
- koff [2]: 0.000215 s⁻¹
- kon [2]: 366000 M⁻¹ s⁻¹
- EC50 [3]: 0.69 µg/mL and 5.31 nM
B2: Knob+Fab-Hole-CEA (106) (bispecific antibody, human IgG4 S228P, kappa, F234A L235A)
chain: ESKYGPPCPPCPAPEAAGGPSVFLFPPKPKDTLMISRTPEVTCVVVDVSQEDPEVQFNWYVDGVEVHNAKTKPREEQFNSTYRVVSVLTVLHQDWLNGKEYKCKVSNKGLPSSIEKTISKAKGQPREPQVYTLPPCQEEMTKNQVSLWCLVKGFYPSDIAVEWESNGQPENNYKTTPPVLDSDGSFFLYSRLTVDKSRWQEGNVFSCSVMHEALHNHYTQKSLSLSL
heavy: EVKLLESGGGLVQPKGSLKLSCAASGFTFNTYAMNWVRQAPGKGLEWVARIRSKYNNYATYYADSVKDRFTISRDDSQSILYLQMNNLKTEDTAMYYCVRHGNFGNSYVSWFAYWGQGTLVTVSSASTKGPSVFPLAPCSRSTSESTAALGCLVKDYFPEPVTVSWNSGALTSGVHTFPAVLQSSGLYSLSSVVTVPSSSLGTKTYTCNVDHKPSNTKVDKRVESKYGPPCPPCPAPEAAGGPSVFLFPPKPKDTLMISRTPEVTCVVVDVSQEDPEVQFNWYVDGVEVHNAKTKPREEQFNSTYRVVSVLTVLHQDWLNGKEYKCKVSNKGLPSSIEKTISKAKGQPREPQVCTLPPSQEEMTKNQVSLSCAVKGFYPSDIAVEWESNGQPENNYKTTPPVLDSDGSFFLVSRLTVDKSRWQEGNVFSCSVMHEALHNRFTQKSLSLSLGGGGSGGGGSEVQLVESGGGFVQAGESLTLSCTSSTLTFTPYRMAWYRQAPGKQRDLVADISSGDGRTTNYADFAKGRFTISRDNIKNTVFLRMTNLKPEDTAVYYCNTFVSFVGIARSWGQGTQVTVSS
light: QAVVTQESALTTSPGETVTLTCRSSTGAVTTSNYANWVQEKPDHLFTGLIGGTNKRAPGVPARFSGSLIGDKAALTITGAQTEDEAIYFCALWYSNLWVFGGGTKVEIKRTVAAPSVFIFPPSDEQLKSGTASVVCLLNNFYPREAKVQWKVDNALQSGNSQESVTEQDSKDSTYSLSSTLTLSKADYEKHKVYACEVTHQGLSSPVTKSFNRGEC
notes: Anti-CD3 TA1 Fab + anti-CEA VHH C17 on human IgG4 knob-into-hole Fc

- Kd [1]: 2.79 nM
- koff [1]: 0.0005 s⁻¹
- kon [1]: 179000 M⁻¹ s⁻¹
B4: HER2-CD3 bispecific antibody 504 (bispecific antibody, human IgG4 S228P, kappa, F234A L235A)
chain: QVQLVQSGGGLVQAGGSLRLSCAASGRTFSSYAMAWFRQAPGKEREFVAAISWSGANIYVADSVKGRFTISRDNAKDTVYLQMNSLKPEDTAVYYCAVKLGFAPVEERQYDYWGQGTQVTVSSESKYGPPCPPCPAPEAAGGPSVFLFPPKPKDTLMISRTPEVTCVVVDVSQEDPEVQFNWYVDGVEVHNAKTKPREEQFNSTYRVVSVLTVLHQDWLNGKEYKCKVSNKGLPSSIEKTISKAKGQPREPQVYTLPPCQEEMTKNQVSLWCLVKGFYPSDIAVEWESNGQPENNYKTTPPVLDSDGSFFLYSRLTVDKSRWQEGNVFSCSVMHEALHNHYTQKSLSLSL
heavy: EVKLLESGGGLVQPKGSLKLSCAASGFTFNTYAMNWVRQAPGKGLEWVARIRSKYNNYATYYADSVKDRFTISRDDSQSILYLQMNNLKTEDTAMYYCVRHGNFGNSYVSWFAYWGQGTLVTVSSASTKGPSVFPLAPCSRSTSESTAALGCLVKDYFPEPVTVSWNSGALTSGVHTFPAVLQSSGLYSLSSVVTVPSSSLGTKTYTCNVDHKPSNTKVDKRVESKYGPPCPPCPAPEAAGGPSVFLFPPKPKDTLMISRTPEVTCVVVDVSQEDPEVQFNWYVDGVEVHNAKTKPREEQFNSTYRVVSVLTVLHQDWLNGKEYKCKVSNKGLPSSIEKTISKAKGQPREPQVCTLPPSQEEMTKNQVSLSCAVKGFYPSDIAVEWESNGQPENNYKTTPPVLDSDGSFFLVSRLTVDKSRWQEGNVFSCSVMHEALHNRFTQKSLSLSL
light: QAVVTQESALTTSPGETVTLTCRSSTGAVTTSNYANWVQEKPDHLFTGLIGGTNKRAPGVPARFSGSLIGDKAALTITGAQTEDEAIYFCALWYSNLWVFGGGTKVEIKRTVAAPSVFIFPPSDEQLKSGTASVVCLLNNFYPREAKVQWKVDNALQSGNSQESVTEQDSKDSTYSLSSTLTLSKADYEKHKVYACEVTHQGLSSPVTKSFNRGEC
notes: VHH-knob chain assembled from VHH and knob-Fc with hinge
